{"source": "patent US20230124851A1", "about": "(INHIBRX LNC, published 2023)", "key": {"[1]": {"molecular_target": "T1, CD3 on the surface of human T cells (human, UniProt P07766 23-207)", "T1 construct": "whole, on cells; Part of the CD3/TCR complex on cells; also called CD3 epsilon", "T1 sequence (P07766 23-207)": "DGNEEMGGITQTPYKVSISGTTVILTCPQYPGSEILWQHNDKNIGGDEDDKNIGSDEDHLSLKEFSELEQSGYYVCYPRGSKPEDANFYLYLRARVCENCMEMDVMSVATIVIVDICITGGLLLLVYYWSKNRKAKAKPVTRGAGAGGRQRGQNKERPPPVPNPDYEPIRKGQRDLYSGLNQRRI", "assay": "flow cytometry on primary human T cells, anti-human Fc secondary", "protocol": "(§1) Binding of exemplary multispecific constructs containing an antigen-binding domain directed against B7H3 were assessed for binding to B7H3 positive A375 tumor cells or primary T-cells. The constructs were generated containing antigen-binding domain(s) that were either sdAbs or a FABs, and that were positioned either only N-terminal to the Fc or both N-terminal to the Fc and C-terminal to the anti-CD3 binding domain (see FIGS. 30A and 30C and Table E5). Among the various formats of constructs tested included: sdAb-Fc-dsFV-sdAb (cx3072, cx5952) sdAb-Fc-FV (cx6079), sdAb-Fc-dsFV (cs6080, cx6081), MAB-FV (cx5067) and MAB-dsFV (cx6083, cx6084), where the FV represents the anti-CD3 binding domain composed of VH and VL domain pairs and “ds” notes disulfide stabilized via an engineered interdomain disulfide bond.\n(§2) Binding was assessed as described above via flow cytometry using a fluorophore-conjugated anti-human Fc secondary antibody. cx3072 bound to A375 cells with high affinity (FIG. 31A) but not to isolated T-cells (FIG. 31B). […] The B7H3 -targeting sdAb containing constructs (cx5952, cx6079, cx6080, and cx6081) bound to B7H3 positive cells with similar affinities (depicted in FIG. 31E), with cx5952 displaying higher maximal binding. cx6079, cx6080 and cx6081 contain two identical B7H3-targeting sdAbs, whereas cx5952, and cx3072 contain two distinct B7H3-targeting sdAb that bind different epitopes. The MAB-FV, cx5067, contains two identical B7H3-targeting FAB domains."}, "[2]": {"molecular_target": "T2, human B7H3 (CD276) on the cell surface (human, UniProt Q5ZPR3 29-534)", "T2 construct": "B7H3 on A375 and other B7H3-positive or transfected cells", "T2 sequence": "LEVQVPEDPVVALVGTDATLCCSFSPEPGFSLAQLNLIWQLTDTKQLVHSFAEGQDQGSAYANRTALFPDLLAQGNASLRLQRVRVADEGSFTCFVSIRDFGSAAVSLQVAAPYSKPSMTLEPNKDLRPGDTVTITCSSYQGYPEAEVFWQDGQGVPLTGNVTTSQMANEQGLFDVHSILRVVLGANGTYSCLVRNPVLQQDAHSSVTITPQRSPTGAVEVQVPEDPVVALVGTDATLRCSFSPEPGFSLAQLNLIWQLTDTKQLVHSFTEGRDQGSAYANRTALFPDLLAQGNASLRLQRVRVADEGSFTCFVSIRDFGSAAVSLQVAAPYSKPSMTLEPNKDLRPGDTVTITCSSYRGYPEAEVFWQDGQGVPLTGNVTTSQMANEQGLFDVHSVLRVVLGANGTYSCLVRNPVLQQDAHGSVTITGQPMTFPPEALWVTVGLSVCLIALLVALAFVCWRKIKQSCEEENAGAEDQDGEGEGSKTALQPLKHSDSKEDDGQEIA", "assay": "flow cytometry on A375 cells (B7H3+), anti-human Fc secondary", "protocol": "as §1, §2"}}}
{"binder": "cx5952 (bispecific antibody, also called sdAb-Fc-dsFV-sdAb) chain 1: EVQLVESGGGEVQPGGSLRLSCAASGFSFSSNVMMWVRQAPGKGLEWVSTIYSSGTGTFYAESVKGRFTISRDNAKNTLYLQMSSLRPEDTAVYYCATSGPVRGWGPRSQGTLVTVKPPGGGGDKTHTCPPCPAPGGPSVFLFPPKPKDTLMISRTPEVTCVVVDVSHEDPEVKFNWYVDGVEVHNAKTKPREEQYNSTYRVVSVLTVLHQDWLNGKEYKCKVSNKALPAPIEKTISKAKGQPREPQVYTLPPCRDELTKNQVSLWCLVKGFYPSDIAVEWESNGQPENNYKTTPPVLDSDGSFFLYSKLTVDKSRWQQGNVFSCSVMHEALHNHYTQKSLSLSPGGGGGGSGGGGGSGGGGGSEVQLVESGGGLVQPGGSLRLSCAASGFTFNTYAMNWVRQAPGKCLEWVARIRSKYNNYATYYADSVKGRFTISRDDAKNTLYLQMSSLRAEDTAVYYCVRHGNFGNSYVSWFAYWGQGTLVTVKPGGGGEVQLVESGGGEVQPGGSLRLSCAASGFTFSSYHMSWFRQAPGKQRELVATSHHGGTTNYAGSVKGRFTISRDNAKNTVYLQMNTLRAEDTAVYYCKADHGYQGRGYWGQGTLVTVKP chain 2: DKTHTCPPCPAPGGPSVFLFPPKPKDTLMISRTPEVTCVVVDVSHEDPEVKFNWYVDGVEVHNAKTKPREEQYNSTYRVVSVLTVLHQDWLNGKEYKCKVSNKALPAPIEKTISKAKGQPREPQVCTLPPSRDELTKNQVSLSCAVKGFYPSDIAVEWESNGQPENNYKTTPPVLDSDGSFFLVSKLTVDKSRWQQGNVFSCSVMHEALHNRYTQKSLSLSPGGGGGGSGGGGGSGGGGGSQAVVTQEPSLTVSPGGTVTLTCGSSTGAVTTSNYANWVQQKPGQAFRGLIGGTNKRAPGVPARFSGSLLGGKAALTISGAQPEDEADYYCALWYSNHWVFGCGTKLEIK", "values": [{"measurement": "binding result", "setting": "[1]", "result": "no binding"}, {"measurement": "binding result", "setting": "[2]", "result": "binds"}]}
{"binder": "cx6079 (bispecific antibody, also called sdAb-Fc-FV) chain 1: EVQLVESGGGEVQPGGSLRLSCAASGFSFSSNVMMWVRQAPGKGLEWVSTIYSSGTGTFYAESVKGRFTISRDNAKNTLYLQMSSLRPEDTAVYYCATSGPVRGWGPRSQGTLVTVKPPGGGGDKTHTCPPCPAPPVAGPSVFLFPPKPKDTLMISRTPEVTCVVVDVKHEDPEVKFNWYVDGVEVHNAKTKPREEEYNSTYRVVSVLTVLHQDWLNGKEYKCKVSNKALPAPIEKTISKAKGQPREPQVYTLPPSREEMTKNQVSLTCDVSGFYPSDIAVEWESDGQPENNYKTTPPVLDSDGSFFLYSKLTVDKSRWEQGDVFSCSVMHEALHNHYTQKSLSLSPGKGGGGSGGGGSGGGGSEVQLVESGGGLVQPGGSLRLSCAASGFTFSTYAMNWVRQAPGKGLEWVGRIRSKYNNYATYYADSVKGRFTISRDDSKNTLYLQMNSLRAEDTAVYYCVRHGNFGDSYVSWFAYWGQGTLVTVSS chain 2: EVQLVESGGGEVQPGGSLRLSCAASGFSFSSNVMMWVRQAPGKGLEWVSTIYSSGTGTFYAESVKGRFTISRDNAKNTLYLQMSSLRPEDTAVYYCATSGPVRGWGPRSQGTLVTVKPPGGGGDKTHTCPPCPAPPVAGPSVFLFPPKPKDTLMISRTPEVTCVVVDVKHEDPEVKFNWYVDGVEVHNAKTKPREEQYNSTYRVVSVLTVLHQDWLNGKEYKCKVSNKALPAPIEKTISKAKGQPREPQVYTLPPSREQMTKNQVKLTCLVKGFYPSDIAVEWESNGQPENNYKTTPPVLDSDGSFFLYSKLTVDKSRWQQGNVFSCSVMHEALHNHYTQKSLSLSPGKGGGGSGGGGSGGGGSQAVVTQEPSLTVSPGGTVTLTCGSSTGAVTTSNYANWVQQKPGKSPRGLIGGTNKRAPGVPARFSGSLLGGKAALTISGAQPEDEADYYCALWYSNHWVFGGGTKLTVL", "values": [{"measurement": "binding result", "setting": "[1]", "result": "no binding"}, {"measurement": "binding result", "setting": "[2]", "result": "binds"}]}
{"binder": "cx6081 (bispecific antibody, also called sdAb-Fc-dsFV) chain 1: EVQLVESGGGEVQPGGSLRLSCAASGFSFSSNVMMWVRQAPGKGLEWVSTIYSSGTGTFYAESVKGRFTISRDNAKNTLYLQMSSLRPEDTAVYYCATSGPVRGWGPRSQGTLVTVKPPGGGGDKTHTCPPCPAPPVAGPSVFLFPPKPKDTLMISRTPEVTCVVVDVKHEDPEVKFNWYVDGVEVHNAKTKPREEEYNSTYRVVSVLTVLHQDWLNGKEYKCKVSNKALPAPIEKTISKAKGQPREPQVYTLPPSREEMTKNQVSLTCDVSGFYPSDIAVEWESDGQPENNYKTTPPVLDSDGSFFLYSKLTVDKSRWEQGDVFSCSVMHEALHNHYTQKSLSLSPGKGGGGSGGGGSGGGGSEVQLVESGGGLVQPGGSLRLSCAASGFTFNTYAMNWVRQAPGKCLEWVARIRSKYNNYATYYADSVKGRFTISRDDAKNTLYLQMSSLRAEDTAVYYCVRHGNFGNSYVSWFAYWGQGTLVTVKP chain 2: EVQLVESGGGEVQPGGSLRLSCAASGFSFSSNVMMWVRQAPGKGLEWVSTIYSSGTGTFYAESVKGRFTISRDNAKNTLYLQMSSLRPEDTAVYYCATSGPVRGWGPRSQGTLVTVKPPGGGGDKTHTCPPCPAPPVAGPSVFLFPPKPKDTLMISRTPEVTCVVVDVKHEDPEVKFNWYVDGVEVHNAKTKPREEQYNSTYRVVSVLTVLHQDWLNGKEYKCKVSNKALPAPIEKTISKAKGQPREPQVYTLPPSREQMTKNQVKLTCLVKGFYPSDIAVEWESNGQPENNYKTTPPVLDSDGSFFLYSKLTVDKSRWQQGNVFSCSVMHEALHNHYTQKSLSLSPGKGGGGSGGGGSGGGGSQAVVTQEPSLTVSPGGTVTLTCGSSTGAVTTSNYANWVQQKPGQAFRGLIGGTNKRAPGVPARFSGSLLGGKAALTISGAQPEDEADYYCALWYSNHWVFGCGTKLEIK", "values": [{"measurement": "binding result", "setting": "[1]", "result": "no binding"}, {"measurement": "binding result", "setting": "[2]", "result": "binds"}]}
{"binder": "cx6080 (bispecific antibody, also called cs6080; sdAb-Fc-dsFV) chain 1: EVQLVESGGGEVQPGGSLRLSCAASGFSFSSNVMMWVRQAPGKGLEWVSTIYSSGTGTFYAESVKGRFTISRDNAKNTLYLQMSSLRPEDTAVYYCATSGPVRGWGPRSQGTLVTVKPPGGGGDKTHTCPPCPAPPVAGPSVFLFPPKPKDTLMISRTPEVTCVVVDVKHEDPEVKFNWYVDGVEVHNAKTKPREEEYNSTYRVVSVLTVLHQDWLNGKEYKCKVSNKALPAPIEKTISKAKGQPREPQVYTLPPSREEMTKNQVSLTCDVSGFYPSDIAVEWESDGQPENNYKTTPPVLDSDGSFFLYSKLTVDKSRWEQGDVFSCSVMHEALHNHYTQKSLSLSPGKGGGGSGGGGSGGGGSEVQLVESGGGLVQPGGSLRLSCAASGFTFSTYAMNWVRQAPGKCLEWVGRIRSKYNNYATYYADSVKGRFTISRDDSKNTLYLQMNSLRAEDTAVYYCVRHGNFGDSYVSWFAYWGQGTLVTVSS chain 2: EVQLVESGGGEVQPGGSLRLSCAASGFSFSSNVMMWVRQAPGKGLEWVSTIYSSGTGTFYAESVKGRFTISRDNAKNTLYLQMSSLRPEDTAVYYCATSGPVRGWGPRSQGTLVTVKPPGGGGDKTHTCPPCPAPPVAGPSVFLFPPKPKDTLMISRTPEVTCVVVDVKHEDPEVKFNWYVDGVEVHNAKTKPREEQYNSTYRVVSVLTVLHQDWLNGKEYKCKVSNKALPAPIEKTISKAKGQPREPQVYTLPPSREQMTKNQVKLTCLVKGFYPSDIAVEWESNGQPENNYKTTPPVLDSDGSFFLYSKLTVDKSRWQQGNVFSCSVMHEALHNHYTQKSLSLSPGKGGGGSGGGGSGGGGSQAVVTQEPSLTVSPGGTVTLTCGSSTGAVTTSNYANWVQQKPGKSPRGLIGGTNKRAPGVPARFSGSLLGGKAALTISGAQPEDEADYYCALWYSNHWVFGCGTKLTVL", "values": [{"measurement": "binding result", "setting": "[1]", "result": "no binding"}, {"measurement": "binding result", "setting": "[2]", "result": "binds"}]}
